Test results as given in patent US6083709.

Columns and labels:
Experiment in all cases: p53 two-site sandwich ELISA, sample tested at 100 ng/ml
[1] = target: bInsulin (bovine (by the printed prefix b; not spelled out)) (UniProt P01317)
[2] = target: hG-CSF (human (by the printed prefix h; not spelled out)) (UniProt P09919)
[3] = target: hPDGF (human (by the printed prefix h; not spelled out))
[4] = target: hTransferin (human (by the printed prefix h; not spelled out)) (UniProt P02787)
[5] = target: hrGM-CSF (human (by the printed prefix hr; not spelled out)) (UniProt P04141)
[6] = target: hrIGF-1 (human (by the printed prefix hr; not spelled out)) (UniProt P05019)
[7] = target: hrIL-1α (human (by the printed prefix hr; not spelled out)) (UniProt P01583)
[8] = target: hrIL-1β (human (by the printed prefix hr; not spelled out)) (UniProt P01584)
[9] = target: hrIL-2 (human (by the printed prefix hr; not spelled out)) (UniProt P60568)
[10] = target: hrIL-3 (human (by the printed prefix hr; not spelled out)) (UniProt P08700)
[11] = target: hrIL-4 (human (by the printed prefix hr; not spelled out)) (UniProt P05112)
[12] = target: hrIL-6 (human (by the printed prefix hr; not spelled out)) (UniProt P05231)
[13] = target: hrTNFα (human (by the printed prefix hr; not spelled out)) (UniProt P01375)

Assay Results (apparent mutant p53 read in the p53 ELISA) [1]: < 50 pg/mL | Assay Results (apparent mutant p53 read in the p53 ELISA) [2]: < 50 pg/mL | Assay Results (apparent mutant p53 read in the p53 ELISA) [3]: < 50 pg/mL | Assay Results (apparent mutant p53 read in the p53 ELISA) [4]: < 50 pg/mL | Assay Results (apparent mutant p53 read in the p53 ELISA) [5]: < 50 pg/mL | Assay Results (apparent mutant p53 read in the p53 ELISA) [6]: < 50 pg/mL | Assay Results (apparent mutant p53 read in the p53 ELISA) [7]: < 50 pg/mL | Assay Results (apparent mutant p53 read in the p53 ELISA) [8]: < 50 pg/mL | Assay Results (apparent mutant p53 read in the p53 ELISA) [9]: < 50 pg/mL | Assay Results (apparent mutant p53 read in the p53 ELISA) [10]: < 50 pg/mL | Assay Results (apparent mutant p53 read in the p53 ELISA) [11]: < 50 pg/mL | Assay Results (apparent mutant p53 read in the p53 ELISA) [12]: < 50 pg/mL | Assay Results (apparent mutant p53 read in the p53 ELISA) [13]: < 50 pg/mL
Substance: monoclonal antibody from clone PAb240
